In assay [1] the target is Shewanella oneidensis diheme cytochrome c peroxidase, maltose-binding protein fusion (Shewanella oneidensis). The assay is described as follows: SEC. In general terms: In gel filtration, larger molecules generally elute earlier.
Assay [2] addresses Shewanella oneidensis diheme cytochrome c peroxidase, tag-free (Shewanella oneidensis). The assay is described as follows: SEC.

We go through two substances from paper PMC3724350.

As a reminder, the stoichiometry N is a count of units in the complex or per binding partner.

For the substance “Shewanella oneidensis diheme cytochrome c peroxidase, maltose-binding protein fusion (enzyme)”, the stoichiometry N in assay [1] amounted to 2.

In assay [2], “Shewanella oneidensis diheme cytochrome c peroxidase, tag-free (enzyme)” showed a stoichiometry N of 2.
